In patent US20020197647A1:

Target: full-length c-Jun (Rattus norvegicus (Rat)) (UniProt P17325)
Test: cell-based or functional assay

wild-type Stat3 (transfected, expression vector pRcCMV) (from UniProt P42227 1-770)
IL-6 dependent response of the α2-macroglobulin luciferase reporter gene in HepG2 cells (fold): 30 fold
IL-6 response of the α2-macroglobulin luciferase reporter gene in HepG2 cells with increasing Stat3 and extra c-Jun (fold above background): 4
